Where no end group is shown, it is not given here.
Assays:
Assay in all cases: peptide ELISA, biotinylated peptide on streptavidin plate; background-subtracted absorbance; positive from 0.2
[1] = target: T1, 244-258 (also: biotinylated, site not given here)
T1 peptide: GGGSVQIVYKPVDLS
Method: (§1) Additional peptides were used to model potential post-translational modifications of the C- and N-terminal ends of the protein.
(§2) Biotinylated peptides were bound to separate wells of a streptavidin-coated ELISA plate. The plate was blocked and treated with murine 3D6, followed by incubation with a horseradish peroxidase-conjugated anti-mouse antibody. After thorough washing, OPD was applied to the plate and allowed to develop. The plate was read at 450 nm absorbance. Background subtraction was performed with absorbance values from wells containing no primary antibody, and a threshold for positive binding was set to 0.2 absorbance units. […] (FIG. 1)

[2] = target: T2, 19-33 (also: biotinylated, site not given here)
T2 construct: also called tau peptide 19-33 (4R0N numbering)
T2 peptide: GLGDRKDQGGYTMHQ
Method: as §1, §2

[3] = target: T3, 37-51 (also: biotinylated, site not given here)
T3 construct: also called tau peptide 37-51 (4R0N numbering)
T3 peptide: GDTDAGLKAEEAGIG
Method: as §1, §2

[4] = target: T4, 271-285 (also: biotinylated, site not given here)
T4 peptide: HHKPGGGQVEVKSEK
Method: as §1, §2

[5] = target: T5, 307-321 (also: biotinylated, site not given here)
T5 construct: also called tau peptide 307-321 (4R0N numbering)
T5 peptide: GGGNKKIETHKLTFR
Method: as §1, §2

[6] = target: T6, 172-186 (also: biotinylated, site not given here)
T6 construct: also called tau peptide 172-186 (4R0N numbering)
T6 peptide: RTPPKSPSSAKSRLQ
Method: as §1, §2

[7] = target: T7, 334-348 (also: biotinylated, site not given here)
T7 construct: also called tau peptide 334-348 (4R0N numbering)
T7 peptide: IVYKSPVVSGDTSPR
Method: as §1, §2

[8] = target: T8, 73-87 (also: biotinylated, site not given here)
T8 construct: also called tau peptide 73-87 (4R0N numbering)
T8 peptide: SKDGTGSDDKKAKGA
Method: as §1, §2

[9] = target: T9, 10-24 (also: biotinylated (site not given here))
T9 construct: also called tau peptide 10-24 (4R0N numbering)
T9 peptide: VMEDHAGTYGLGDRK
Method: as §1, §2

[10] = target: T10, 64-78 (also: biotinylated, site not given here)
T10 construct: also called tau peptide 64-78 (4R0N numbering)
T10 peptide: VTQARMVSKSKDGTG
Method: as §1, §2

[11] = target: T11, 352-366 (also: biotinylated, site not given here)
T11 construct: also called tau peptide 352-366 (4R0N numbering)
T11 peptide: NVSSTGSIDMVDSPQ
Method: as §1, §2

[12] = target: T12, 109-123 (also: biotinylated, site not given here)
T12 construct: also called tau peptide 109-123 (4R0N numbering)
T12 peptide: NATRIPAKTPPAPKT
Method: as §1, §2

[13] = target: T13, 55-69 (also: biotinylated, site not given here)
T13 construct: also called tau peptide 55-69 (4R0N numbering)
T13 peptide: SLEDEAAGHVTQARM
Method: as §1, §2

[14] = target: T14, 154-168 (biotinylated)
T14 construct: also called tau peptide 154-168 (4R0N numbering)
Method: as §1, §2

[15] = target: T15, 298-312 (also: biotinylated, site not given here)
T15 construct: also called tau peptide 298-312 (4R0N numbering)
T15 peptide: SLDNITHVPGGGNKK
Method: as §1, §2

[16] = target: T16, 280-294 (also: biotinylated, site not given here)
T16 construct: also called tau peptide 280-294 (4R0N numbering)
T16 peptide: EVKSEKLDFKDRVQS
Method: as §1, §2

[17] = target: T17, 1-15* (acetylated) (also: biotinylated (site not given here))
T17 construct: also called tau peptide 1-15 (4R0N numbering), acetylated
T17 peptide: Ac-MAEPRQEFEVMEDHA
Method: as §1, §2

[18] = target: T18, 217-231 (also: biotinylated, site not given here)
T18 construct: also called tau peptide 217-231 (4R0N numbering)
T18 peptide: VQIINKKLDLSNVQS
Method: as §1, §2

[19] = target: T19, 163-177 (also: biotinylated, site not given here)
T19 peptide: REPKKVAVVRTPPKS
Method: as §1, §2

[20] = target: T20, 91-105 (also: biotinylated, site not given here)
T20 construct: also called tau peptide 91-105 (4R0N numbering)
T20 peptide: TKIATPRGAAPPGQK
Method: as §1, §2

[21] = target: T21, 100-114 (also: biotinylated (site not given here))
T21 construct: also called tau peptide 100-114 (4R0N numbering)
T21 peptide: APPGQKGQANATRIP
Method: as §1, §2

Measured: binding result

B1: murine 3D6 monoclonal antibody (antibody, IgG1, V domains shown)
VH: EVQLQQSGADLVRPGALVKLSCKASGFNIKDYYLHWVRQRPEQGLEWIGWIDPENGDTVYDPKFQGKATITADTSSNTAYLQLGSLTSEDTAVYFCSTLDFWGQGTTLTVSS
VL: not shown
notes: Hybridoma-derived mouse antibody; also called m3D6; mouse 3D6
no binding: all assays above
